The results in this text go back to patent publication US20210380702A1 (Regeneron, published 2021).

For experiment [1], the target named is T1, recombinant human PD-L1 (amino acids 19-239 of NP_054862.1) with a C-terminal myc-myc-hexahistidine tag (human).
T1 construct: also called hPD-L1-MMH; hPD-L1-MMH Monomer
Briefly: SPR (Biacore), mAb captured, 37C. The procedure:
(§1) Binding association and dissociation rate constants (kₐ and kd, respectively), equilibrium dissociation constants and dissociation half-lives (KD and t_{1/2}, respectively) of antigen binding to purified anti-PD-L1 monoclonal antibodies were determined using a real-time surface plasmon resonance biosensor assay on a Biacore 4000 instrument. The Biacore sensor surface was either derivatized with polyclonal rabbit anti-mouse antibody (GE, #BR-1008-38) or with monoclonal mouse anti-human Fc antibody (GE, #BR-1008-39) to capture approximately 200-300 RUs of anti-PD-L1 monoclonal antibodies, expressed with either a mouse Fc or with human Fc, respectively. […] Different concentrations of PD-L1 reagents were injected over the anti-PD-L1 monoclonal antibody captured surface at a flow rate of 30 μL/min. The binding of the PD-L1 reagents to the captured monoclonal antibodies was monitored for 3 to 4 minutes while the dissociation of antibody bound PD-L1 reagents was monitored for 10 minutes in HBST running buffer (0.01 M HEPES pH 7.4, 0.15 M NaCl, 3 mM EDTA, 0.05% v/v Surfactant tween-20). Experiments were performed at either 25° C. or 37° C. Kinetic association (kₐ) and dissociation (kd) rate constants were determined by processing and fitting the data to a 1:1 binding model using Scrubber 2.0c curve fitting software. Binding dissociation equilibrium constants (KD) and dissociative half-lives (t_{1/2}) were then calculated from the kinetic rate constants as: KD (M)=kd/kₐ and t_{1/2} (min)=[In2/(60*kd)].

In experiment [2] the target is T2, Human PD-L1 Dimer (human, UniProt Q9NZQ7 19-239).
T2 construct: also called hPD-L1 dimer; hPD-L1-hFc
Briefly: SPR (Biacore), mAb captured, 37C. On the procedure: as §1
Background: Surface plasmon resonance follows binding to a sensor surface in real time, without labels.

Experiment [3] addresses T3, recombinant cynomolgus monkey PD-L1 with a C-terminal myc-myc-hexahistidine tag (cynomolgus monkey (Macaca fascicularis)).
T3 construct: also called MfPD-L1-MMH; MfPD-L1-MMH Monomer
Kind of experiment: SPR (Biacore), mAb captured, 37C. On the procedure:
as §1

Experiment [4] concerns the target T2, Human PD-L1 Dimer. Kind of experiment: SPR (Biacore), mAb captured, 25C. The procedure: as §1
Experiment [5] concerns the target T3, recombinant cynomolgus monkey PD-L1 …. Briefly: SPR (Biacore), mAb captured, 25C. The procedure:
as §1

Experiment [6] has as its target T4, recombinant cynomolgus monkey PD-L1 with a C-terminal mouse IgG2a Fc tag (cynomolgus monkey (Macaca fascicularis)).
T4 construct: also called MfPD-L1-mFc; monkey PD-L1-mFc
Kind of experiment: SPR (Biacore), mAb captured, 25C. The procedure: as §1

Experiment [7] addresses full length human PD-L1 (amino acids 1 to 290 of NP_054862.1) on transfected cells (human, UniProt Q9NZQ7 19-290). Kind of experiment: cell-based or functional assay.
Experiment [8] concerns the target T5, recombinant cynomolgus monkey PD-L1 expressed with a C-terminal mouse IgG2a Fc tag (cynomolgus monkey).
T5 construct: also called MfPD-L1-mFc; monkey PD-L1-mFc
Briefly: SPR (Biacore), mAb captured, 37C. On the procedure:
as §1

Values joined by “and” are separate entries in the source; they are usually repeats but may differ in a detail not shown here. Equal values may be shown once.

T4 sequence (chain, as listed by the source limits assumed): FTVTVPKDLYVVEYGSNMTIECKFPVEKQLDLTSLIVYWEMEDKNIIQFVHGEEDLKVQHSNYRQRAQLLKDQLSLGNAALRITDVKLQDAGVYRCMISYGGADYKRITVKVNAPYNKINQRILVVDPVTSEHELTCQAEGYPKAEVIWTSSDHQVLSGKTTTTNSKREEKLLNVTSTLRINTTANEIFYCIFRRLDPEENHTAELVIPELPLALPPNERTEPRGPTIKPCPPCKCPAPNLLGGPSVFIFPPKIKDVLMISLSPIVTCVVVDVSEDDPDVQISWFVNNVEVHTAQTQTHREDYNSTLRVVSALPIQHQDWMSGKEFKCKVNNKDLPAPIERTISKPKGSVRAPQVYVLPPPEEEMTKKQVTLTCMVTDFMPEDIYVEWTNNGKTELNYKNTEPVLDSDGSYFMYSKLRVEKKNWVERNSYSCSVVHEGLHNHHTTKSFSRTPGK
T2 sequence (Q9NZQ7 19-239): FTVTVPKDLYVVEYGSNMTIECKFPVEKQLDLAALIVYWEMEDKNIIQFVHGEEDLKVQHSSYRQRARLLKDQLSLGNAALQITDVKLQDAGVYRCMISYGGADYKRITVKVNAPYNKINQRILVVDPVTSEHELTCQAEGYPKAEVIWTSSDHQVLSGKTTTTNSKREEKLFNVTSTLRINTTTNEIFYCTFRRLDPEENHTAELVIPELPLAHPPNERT
T3 sequence (chain, as listed by the source limits assumed): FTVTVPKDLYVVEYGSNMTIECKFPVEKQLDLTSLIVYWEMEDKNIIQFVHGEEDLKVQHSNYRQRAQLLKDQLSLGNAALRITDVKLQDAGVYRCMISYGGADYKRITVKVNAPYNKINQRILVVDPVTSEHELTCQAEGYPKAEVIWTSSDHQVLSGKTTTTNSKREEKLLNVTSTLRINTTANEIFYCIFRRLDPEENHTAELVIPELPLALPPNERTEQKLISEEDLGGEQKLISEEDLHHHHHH
T1 sequence (chain, as listed by the source limits assumed): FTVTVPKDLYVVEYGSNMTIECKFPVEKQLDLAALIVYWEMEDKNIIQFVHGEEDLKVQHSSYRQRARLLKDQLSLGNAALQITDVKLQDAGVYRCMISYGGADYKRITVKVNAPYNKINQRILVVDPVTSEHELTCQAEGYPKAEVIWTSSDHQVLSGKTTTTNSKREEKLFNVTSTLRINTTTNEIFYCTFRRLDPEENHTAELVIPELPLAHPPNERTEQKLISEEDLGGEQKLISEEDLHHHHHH
Chain of full length human PD-L1 (amino acids 1 to 290 of NP_054862.1) on transfected cells (Q9NZQ7 19-290 limits assumed): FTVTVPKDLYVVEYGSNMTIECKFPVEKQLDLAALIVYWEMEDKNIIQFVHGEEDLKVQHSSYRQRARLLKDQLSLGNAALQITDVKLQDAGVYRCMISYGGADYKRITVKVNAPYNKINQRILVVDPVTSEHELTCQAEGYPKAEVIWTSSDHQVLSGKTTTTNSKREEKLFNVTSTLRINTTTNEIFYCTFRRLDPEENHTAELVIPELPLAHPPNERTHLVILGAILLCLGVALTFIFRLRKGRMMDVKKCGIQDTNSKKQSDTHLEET

B1: H1H9387P2 (antibody, human IgG1, V domains shown)
VH: QVQLVQSGAEVKKPGSSVKVSCKASGGTFNTYVLSWVRQAPGQGLEWMGEIIPILGAANYAQNFQGRVTFTTDESTNTAYMDLSSLRSEDTAVYYCARDRTSGGFDPWGQGTLVTVSS
VL: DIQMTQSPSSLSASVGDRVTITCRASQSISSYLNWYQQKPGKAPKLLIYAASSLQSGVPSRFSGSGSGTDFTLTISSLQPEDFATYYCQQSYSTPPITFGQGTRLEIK
For the molecule B1, the Kd in experiment [1] was 39.1 nM; in the experiment with Human PD-L1 Dimer [2] it was 0.0639 nM; in experiment [3] it was 48.9 nM; in the experiment with Human PD-L1 Dimer [4], 0.0427 nM; in experiment [5], 25.5 nM; in experiment [6], 0.0452 nM and 0.073 nM. The koff is 0.137 s⁻¹ in experiment [1]; 0.000392 s⁻¹ with Human PD-L1 Dimer [2]; 0.157 s⁻¹ in experiment [3]; 0.000217 s⁻¹ with Human PD-L1 Dimer [4]; 0.0604 s⁻¹ in experiment [5]; 0.000161 s⁻¹ and 0.000212 s⁻¹ in experiment [6]. The kon is 3.49e+06 M⁻¹ s⁻¹ in experiment [1]; 6.12e+06 M⁻¹ s⁻¹ with Human PD-L1 Dimer [2]; 3.2e+06 M⁻¹ s⁻¹ in experiment [3]; 5.07e+06 M⁻¹ s⁻¹ with Human PD-L1 Dimer [4]; 2.37e+06 M⁻¹ s⁻¹ in experiment [5]; 3.55e+06 M⁻¹ s⁻¹ and 2.9e+06 M⁻¹ s⁻¹ in experiment [6]. Further, the t1/2 in experiment [1] was 0.08 min; in the experiment with Human PD-L1 Dimer [2] it was 29 min; in experiment [3], 0.07 min; in the experiment with Human PD-L1 Dimer [4], 53 min; in experiment [5], 0.2 min; in experiment [6] it was 72 min and 55 min.

B2: H1H9396P2 (antibody, human IgG1, V domains shown)
VH: QVQLVQSGAEVEKPGASVKVSCKASGYIFTHYGISWVRQAPGQGLEWVGWISPYNGYTDYAQKLQGRVTLTTDTSTTTAYMELRNLRSDDTAMYYCSRGRGPYWSFDLWGRGTLVTVSS
VL: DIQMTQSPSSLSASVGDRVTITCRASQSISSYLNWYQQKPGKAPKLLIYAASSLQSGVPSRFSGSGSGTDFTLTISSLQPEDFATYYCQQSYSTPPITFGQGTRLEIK
In the case of B2, the Kd amounted to 33 nM in experiment [1]; 0.237 nM with Human PD-L1 Dimer [2]; 30.5 nM in experiment [3]; 0.245 nM with Human PD-L1 Dimer [4]; 12.2 nM in experiment [5]; 0.225 nM in experiment [6]. Moreover, the koff was found to be 0.0113 s⁻¹ in experiment [1]; 0.000258 s⁻¹ with Human PD-L1 Dimer [2]; 0.012 s⁻¹ in experiment [3]; 0.00019 s⁻¹ with Human PD-L1 Dimer [4]; 0.00252 s⁻¹ in experiment [5]; 0.000188 s⁻¹ in experiment [6]. Also, the kon in experiment [1] came to 344000 M⁻¹ s⁻¹; in the experiment with Human PD-L1 Dimer [2] it was 1.09e+06 M⁻¹ s⁻¹; in experiment [3], 394000 M⁻¹ s⁻¹; in the experiment with Human PD-L1 Dimer [4], 776000 M⁻¹ s⁻¹; in experiment [5] it was 206000 M⁻¹ s⁻¹; in experiment [6], 837000 M⁻¹ s⁻¹. In addition, the t1/2 in experiment [1] was 1 min; with Human PD-L1 Dimer [2], 45 min; in experiment [3] it was 1 min; with Human PD-L1 Dimer [4] it was 61 min; in experiment [5], 4.6 min; in experiment [6], 61 min.

B3: H1H8314N (antibody, V domains shown)
VH: EVQLVESGGGVVRPGGSLRLSCAASGFTFDDYGMTWVRQAPGRGLEWVSGIHWHGKRTGYADSVKGRFTISRDNAKKSLYLQMNSLKGEDTALYHCVRGGMSTGDWFDPWGQGTLVIVSS
VL: DIQMTQSPSSLSASLGDRVTITCRASQSINSYLNWYQQKPGKAPKLLIYVASSLQSGVPSRFSGSGSGTEFTLTISNLQPEDFATYYCQQSYSTPPITFGQGTRLEIK
notes: human IgG1 Fc form (H1H prefix) of numerical identifier 8314
For B3, in experiment [7], the “Concentration [M] of Antibody at 125% activation” value came to 6.57e-11 M and the “Emax mean [%] @ 100 nM” value was found to be 148%. In experiment [8], the Kd was found to be 0.0333 nM, the koff worked out at 9.6e-05 s⁻¹, the kon was 2.89e+06 M⁻¹ s⁻¹ and the t1/2 came to 120 min.

B4: H1H9364P2 (antibody, human IgG1, V domains shown)
VH: EVQLVESGGGLVQPGRSLRLSCAASGFTFDDYALHWVRQAPGKGLEWVSGISWTGGTIDYADSVKGRFTISRDNAKNSLYLQMSSLRTEDTAIYYCTRDIRGNWKYGGWFDPWGQGTLVTVSS
VL: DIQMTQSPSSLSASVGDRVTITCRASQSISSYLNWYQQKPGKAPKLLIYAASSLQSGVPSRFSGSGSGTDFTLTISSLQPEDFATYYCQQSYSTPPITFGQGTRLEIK
For the molecule B4, the Kd in experiment [1] was 0.417 nM; with Human PD-L1 Dimer [2], 0.0208 nM; in experiment [3], 0.566 nM; with Human PD-L1 Dimer [4], 0.0437 nM; in experiment [5], 0.412 nM; in experiment [6], 0.0587 nM and 0.0462 nM. The koff in experiment [1] was 0.000563 s⁻¹; with Human PD-L1 Dimer [2], 6.96e-05 s⁻¹; in experiment [3], 0.000633 s⁻¹; with Human PD-L1 Dimer [4], 0.000106 s⁻¹; in experiment [5] it was 0.000312 s⁻¹; in experiment [6], 7.75e-05 s⁻¹ and 5.8e-05 s⁻¹. Moreover, the kon in experiment [1] is 1.35e+06 M⁻¹ s⁻¹; with Human PD-L1 Dimer [2], 3.34e+06 M⁻¹ s⁻¹; in experiment [3], 1.12e+06 M⁻¹ s⁻¹; with Human PD-L1 Dimer [4], 2.42e+06 M⁻¹ s⁻¹; in experiment [5], 757000 M⁻¹ s⁻¹; in experiment [6], 1.32e+06 M⁻¹ s⁻¹ and 1.25e+06 M⁻¹ s⁻¹. For the same molecule, the t1/2 in experiment [1] was 21 min; in the experiment with Human PD-L1 Dimer [2], 166 min; in experiment [3] it was 18 min; with Human PD-L1 Dimer [4], 109 min; in experiment [5], 37 min; in experiment [6] it was 149 min and 199 min.

B5: H1H9382P2 (antibody, human IgG1, V domains shown)
VH: EVQLVESGGGLVQPGGSLRLSCAASGFTVGTNFMNWVRQAPGKGLEWVSAIYSGGTANYADSVKGRFTISRDTSRNTLYLQMNSLRTEDTAVYYCARGGGMDVWGQGTTVTVSS
VL: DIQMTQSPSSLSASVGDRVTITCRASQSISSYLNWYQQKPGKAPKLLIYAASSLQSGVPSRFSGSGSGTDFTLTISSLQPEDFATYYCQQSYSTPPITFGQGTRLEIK
As to B5, the Kd was 107 nM in experiment [1]; 0.278 nM with Human PD-L1 Dimer [2]; 189 nM in experiment [3]; 0.663 nM with Human PD-L1 Dimer [4]; 157 nM in experiment [5]; 0.626 nM in experiment [6]. Also, the koff is 0.0107 s⁻¹ in experiment [1]; 0.000137 s⁻¹ with Human PD-L1 Dimer [2]; 0.0245 s⁻¹ in experiment [3]; 0.000148 s⁻¹ with Human PD-L1 Dimer [4]; 0.0129 s⁻¹ in experiment [5]; 0.000133 s⁻¹ in experiment [6]. In addition, the kon in experiment [1] came to 99700 M⁻¹ s⁻¹; in the experiment with Human PD-L1 Dimer [2], 492000 M⁻¹ s⁻¹; in experiment [3] it was 130000 M⁻¹ s⁻¹; in the experiment with Human PD-L1 Dimer [4] it was 223000 M⁻¹ s⁻¹; in experiment [5], 82200 M⁻¹ s⁻¹; in experiment [6], 213000 M⁻¹ s⁻¹. In addition, the t1/2 was 1.1 min in experiment [1]; 84 min with Human PD-L1 Dimer [2]; 0.5 min in experiment [3]; 78 min in the experiment with Human PD-L1 Dimer [4]; 0.9 min in experiment [5]; 87 min in experiment [6].

B6: H1H8323N (antibody, V domains shown)
VH: QVQLVQSGAEVKMPGSSVRVSCKASGGIFSSSTISWVRQAPGQGLEWMGEIIPVFGTVNYAQKFQDRVIFTADESTTTAYMELSSLKSGDTAVYFCARNWGLGSFYIWGQGTMVTVSS
VL: EIVLTQSPGTLSLSPGERATLSCRASQSFNFNYLAWYQQKPGQAPRLLIYGASSRATGIPDRFSGSGSGTDFTLTINRLEPEDFGVFYCQQYESAPWTFGQGTKVEIK
notes: human IgG1 Fc form (H1H prefix) of numerical identifier 8323
Take B6: in experiment [8], the Kd is 0.0451 nM, the koff was determined as 0.000135 s⁻¹, the kon stood at 2.99e+06 M⁻¹ s⁻¹ and the t1/2 is 86 min.

As a reminder, the Kd is the constant that tells how readily two partners part at equilibrium. Broadly, the koff is a measure of how fast the partners let go of each other. As usually defined, the kon is a measure of how fast the partners come together.
